Assay [1] addresses T1, Gal-CBP280-460 chimera (yeast, UniProt P04386 1-147; P45481 280-460). The assay can be described thus: cell-based or functional assay.
In assay [2] the target is Gal-CBP227-460 chimera (yeast, UniProt P04386 1-147; P45481 227-460). The assay can be described thus: cell-based or functional assay.
Assay [3] addresses T1, Gal-CBP280-460 chimera. The assay can be described thus: mammalian two-hybrid assay in HeLa cells.

B1: VP16-clone 11 chimera (other)
chain: MTAPPTDVSLGDELHLDGEDVAMAHADALDDFDLDMLGDGDSPGPGFTPHDSAPYGALDMADFEFEQMFTDALGIDEYGGGTSLASASPVPAPTPVLAPSSTQTMLPAPVPSPLPSPASTQTLALAPALAPTLGGSSPSQTLSLGTGNPQGPFPTQTLSLTPASSLVPTPAQTLSLAPGPPLGPTQTLSLAPAPPLAPASPVGPAPAHTLTLAPASSSASLLAPASVQTLTLSPAPVPTLGPAAAQTLALAPASTQSPASQASSLVVSASGAAPLPVTMVSRLPVSKDEPDTLTLRSGPPSPPSTATSFGGPRPRRQPPPPPRSPFYLDSLEEKRKRQRSERLERIFQLSEAHGALAPVYGTEVLDFCTLPQPVASPIGPRSPGPSHPTFWTYTEAAHRA
On to B1, for which the “transcription of the reporter gene pGal-CAT (relative CAT activity)” value in assay [1] is ~20 fold. In addition, the “ability of the Gal-CBP227-460 chimera to activate transcription of the reporter gene pGal-CAT” value in assay [2] is ~1.5 fold.

B2: VP16 activation domain (other)
chain: MTAPPTDVSLGDELHLDGEDVAMAHADALDDFDLDMLGDGDSPGPGFTPHDSAPYGALDMADFEFEQMFTDALGIDEYGG
notes: range 412-491; Control without the clone 11 part; also called pVP16
On to B2, for which, in assay [3], the binding result is listed as “no binding”.
